Measurements reported in patent US10227388B2, “Peptides and combination of peptides for use in immunotherapy against non-small cell lung cancer and other cancers” (immatics biotechnologies GmbH, priority 2015, dated 2019).

Target: HLA-A*02:01 (Homo sapiens, UniProt P04439, D140Y/D185E/D98H/E176V/E277Q/G131W/G231S/I119V/I121R/I166T/I218V/L300P/L318F/N151K/N90K/P208A/P217A/Q86G/Q94H/R138H/R169H/T345S)
Assay: MHC binding assay (UV-ligand exchange, ELISA, peptide exchange yield)
Details: binding of HLA-class I restricted peptides to HLA-A*02:01
In short: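 Exchange yield was quantified as stabilized β2m-containing complex: monomers diluted 100-fold bound to streptavidin-coated wells, probed with HRP-conjugated anti-β2m, read at 450 nm after TMB. Complexes had been generated by UV cleavage of a photolabile ligand and replacement with the candidate peptide.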

With “200 (LLFGSVQEV; listed as Homo sapiens) [compound 200]” the “Peptide exchange (MHC class I binding score, peptide exchange yield)” value (shortened to “Peptide exchange”) was “″+++″ (≥50% = +++)”.
For “201 (RLVDYLEGI; listed as Homo sapiens) [compound 201]”, the “Peptide exchange” value was “″+++″ (≥50% = +++)”.
In the case of “202 (ALLDQQGSRWTL; listed as Homo sapiens) [compound 202]”, the “Peptide exchange” value is reported as “″+++″ (≥50% = +++)”.
In the case of “204 (KIAENVEEV; listed as Homo sapiens) [compound 204]”, the “Peptide exchange” value is reported as “″++″ (≥20% = ++)”.
With “205 (SLYPGTETMGL; listed as Homo sapiens) [compound 205]” the “Peptide exchange” value was “″+++″ (≥50% = +++)”.
In the case of “206 (VLQEGKLQKLAQL; listed as Homo sapiens) [compound 206]”, the “Peptide exchange” value is reported as “″+++″ (≥50% = +++)”.
For “207 (GLTSTNAEV; listed as Homo sapiens) [compound 207]”, the “Peptide exchange” value was “″++″ (≥20% = ++)”.
With “208 (KISPVTFSV; listed as Homo sapiens) [compound 208]” the “Peptide exchange” value was “″+++″ (≥50% = +++)”.
In the case of “209 (KLIESKHEV; listed as Homo sapiens) [compound 209]”, the “Peptide exchange” value is reported as “″++″ (≥20% = ++)”.
With “210 (LLLNAVLTV; listed as Homo sapiens) [compound 210]” the “Peptide exchange” value was “″++″ (≥20% = ++)”.
With “211 (LLWPGAALL; listed as Homo sapiens) [compound 211]” the “Peptide exchange” value was “″++″ (≥20% = ++)”.
With “212 (ALWDQDNLSV; listed as Homo sapiens) [compound 212]” the “Peptide exchange” value was “″++″ (≥20% = ++)”.
“214 (FLLDLDPLLL; listed as Homo sapiens) [compound 214]” was tested, and the “Peptide exchange” value was “″+++″ (≥50% = +++)”.
For “215 (QLINHLHAV; listed as Homo sapiens) [compound 215]”, the “Peptide exchange” value was “″+++″ (≥50% = +++)”.
For “216 (NLWEDPYYL; listed as Homo sapiens) [compound 216]”, the “Peptide exchange” value was “″+++″ (≥50% = +++)”.
For “217 (ALIHPVSTV; listed as Homo sapiens) [compound 217]”, the “Peptide exchange” value was “″++″ (≥20% = ++)”.
With “218 (SALEELVNV; listed as Homo sapiens) [compound 218]” the “Peptide exchange” value was “″++″ (≥20% = ++)”.
With “219 (KLSDIGITV; listed as Homo sapiens) [compound 219]” the “Peptide exchange” value was “″+++″ (≥50% = +++)”.
In the case of “220 (LLQKFVPEI; listed as Homo sapiens) [compound 220]”, the “Peptide exchange” value is reported as “″++″ (≥20% = ++)”.
For “221 (ALYEEGLLL; listed as Homo sapiens) [compound 221]”, the “Peptide exchange” value was “″++″ (≥20% = ++)”.
With “222 (NLIENVQRL; listed as Homo sapiens) [compound 222]” the “Peptide exchange” value was “″++″ (≥20% = ++)”.
In the case of “223 (ALLENIALYL; listed as Homo sapiens) [compound 223]”, the “Peptide exchange” value is reported as “″+++″ (≥50% = +++)”.
In the case of “224 (TLIDAQWVL; listed as Homo sapiens) [compound 224]”, the “Peptide exchange” value is reported as “″+++″ (≥50% = +++)”.
With “225 (SLLKVLPAL; listed as Homo sapiens) [compound 225]” the “Peptide exchange” value was “″+++″ (≥50% = +++)”.
For “226 (MLYVVPIYL; listed as Homo sapiens) [compound 226]”, the “Peptide exchange” value was “″++″ (≥20% = ++)”.
“227 (ALMNTLLYL; listed as Homo sapiens) [compound 227]” was tested, and the “Peptide exchange” value was “″++″ (≥20% = ++)”.
With “228 (AMQEYIAVV; listed as Homo sapiens) [compound 228]” the “Peptide exchange” value was “″++″ (≥20% = ++)”.
With “229 (RLPGPLGTV; listed as Homo sapiens) [compound 229]” the “Peptide exchange” value was “″++″ (≥20% = ++)”.
For “230 (ILVDWLVEV; listed as Homo sapiens) [compound 230]”, the “Peptide exchange” value was “″+″ (≥10% = +)”.
For “231 (FLSPQQPPLLL; listed as Homo sapiens) [compound 231]”, the “Peptide exchange” value was “″++″ (≥20% = ++)”.
For “232 (ALLEAQDVELYL; listed as Homo sapiens) [compound 232]”, the “Peptide exchange” value was “″++″ (≥20% = ++)”.
In the case of “233 (VLSETLYEL; listed as Homo sapiens) [compound 233]”, the “Peptide exchange” value is reported as “″++″ (≥20% = ++)”.
With “234 (ALMEDTGRQML; listed as Homo sapiens) [compound 234]” the “Peptide exchange” value was “″++″ (≥20% = ++)”.
In the case of “235 (YLNDLHEVLL; listed as Homo sapiens) [compound 235]”, the “Peptide exchange” value is reported as “″++++″ (≥75% = ++++)”.
For “236 (GLLEAKVSL; listed as Homo sapiens) [compound 236]”, the “Peptide exchange” value was “″+++″ (≥50% = +++)”.
In the case of “237 (ALLEASGTLLL; listed as Homo sapiens) [compound 237]”, the “Peptide exchange” value is reported as “″++++″ (≥75% = ++++)”.
In the case of “238 (YLISFQTHI; listed as Homo sapiens) [compound 238]”, the “Peptide exchange” value is reported as “″+++″ (≥50% = +++)”.
For “239 (AAFAGKLLSV; listed as Homo sapiens) [compound 239]”, the “Peptide exchange” value was “″+++″ (≥50% = +++)”.
With “240 (ILLEQAFYL; listed as Homo sapiens) [compound 240]” the “Peptide exchange” value was “″+++″ (≥50% = +++)”.
“241 (SLVEVNPAYSV; listed as Homo sapiens) [compound 241]” was tested, and the “Peptide exchange” value was “″+++″ (≥50% = +++)”.
For “242 (AIAYILQGV; listed as Homo sapiens) [compound 242]”, the “Peptide exchange” value was “″++″ (≥20% = ++)”.
In the case of “243 (LLLNELPSV; listed as Homo sapiens) [compound 243]”, the “Peptide exchange” value is reported as “″+++″ (≥50% = +++)”.
In the case of “244 (SLFGGTEITI; listed as Homo sapiens) [compound 244]”, the “Peptide exchange” value is reported as “″+++″ (≥50% = +++)”.
“245 (SMIDDLLGV; listed as Homo sapiens) [compound 245]” was tested, and the “Peptide exchange” value was “″+++″ (≥50% = +++)”.
With “246 (LLWEVVSQL; listed as Homo sapiens) [compound 246]” the “Peptide exchange” value was “″+++″ (≥50% = +++)”.
With “248 (FLFPNQYVDV; listed as Homo sapiens) [compound 248]” the “Peptide exchange” value was “″+++″ (≥50% = +++)”.
With “249 (LLDGFLVNV; listed as Homo sapiens) [compound 249]” the “Peptide exchange” value was “″+++″ (≥50% = +++)”.
With “250 (ALSEEGLLVYL; listed as Homo sapiens) [compound 250]” the “Peptide exchange” value was “″+++″ (≥50% = +++)”.
With “251 (ALYTGFSILV; listed as Homo sapiens) [compound 251]” the “Peptide exchange” value was “″++″ (≥20% = ++)”.
With “252 (LLIGTDVSL; listed as Homo sapiens) [compound 252]” the “Peptide exchange” value was “″+++″ (≥50% = +++)”.
“253 (GLDAATATV; listed as Homo sapiens) [compound 253]” was tested, and the “Peptide exchange” value was “″++″ (≥20% = ++)”.
“254 (TLLAFIMEL; listed as Homo sapiens) [compound 254]” was tested, and the “Peptide exchange” value was “″+++″ (≥50% = +++)”.
In the case of “255 (VLASYNLTV; listed as Homo sapiens) [compound 255]”, the “Peptide exchange” value is reported as “″+++″ (≥50% = +++)”.
For “256 (FLPPEHTIVYI; listed as Homo sapiens) [compound 256]”, the “Peptide exchange” value was “″+++″ (≥50% = +++)”.
In the case of “257 (SIFSAFLSV; listed as Homo sapiens) [compound 257]”, the “Peptide exchange” value is reported as “″+++″ (≥50% = +++)”.
In the case of “258 (ELAERVPAI; listed as Homo sapiens) [compound 258]”, the “Peptide exchange” value is reported as “″++″ (≥20% = ++)”.
For “261 (YVLEFLEEI; listed as Homo sapiens) [compound 261]”, the “Peptide exchange” value was “″++″ (≥20% = ++)”.
For “262 (LLWGDLIWL; listed as Homo sapiens) [compound 262]”, the “Peptide exchange” value was “″+++″ (≥50% = +++)”.
In the case of “263 (LLVSNLDFGV; listed as Homo sapiens) [compound 263]”, the “Peptide exchange” value is reported as “″+++″ (≥50% = +++)”.
“264 (SLQEQLHSV; listed as Homo sapiens) [compound 264]” was tested, and the “Peptide exchange” value was “″+++″ (≥50% = +++)”.
“265 (LLFGGTKTV; listed as Homo sapiens) [compound 265]” was tested, and the “Peptide exchange” value was “″++″ (≥20% = ++)”.
With “266 (KITDTLIHL; listed as Homo sapiens) [compound 266]” the “Peptide exchange” value was “″+++″ (≥50% = +++)”.
“267 (ALQDFLLSV; listed as Homo sapiens) [compound 267]” was tested, and the “Peptide exchange” value was “″+++″ (≥50% = +++)”.
“269 (RVLEVGALQAV; listed as Homo sapiens) [compound 269]” was tested, and the “Peptide exchange” value was “″++″ (≥20% = ++)”.
For “270 (LLLDEEGTFSL; listed as Homo sapiens) [compound 270]”, the “Peptide exchange” value was “″++″ (≥20% = ++)”.
With “271 (LVYPLELYPA; listed as Homo sapiens) [compound 271]” the “Peptide exchange” value was “″+++″ (≥50% = +++)”.
With “272 (ALGNTVPAV; listed as Homo sapiens) [compound 272]” the “Peptide exchange” value was “″+++″ (≥50% = +++)”.
